The labels stand for the following.
B1: D8S1 mouse/human chimeric anti-human CD47 antibody (antibody, V domains shown)
VH: EVQLQQSVAELVRPGASVKLSCTVSGFNIKNTYIYWVKQRPEQGLEWIGRIDPANGNTKDAPKFQGKATMTADTSSNTAYLQLSSLTSEDTAIYYCARGYGSGFAYWGQGTLVTVSA
VL: DIQMTQTTSSLSASLGDRVTISCRASQDISNHLNWYQQKPDGIVKLLIYYTSRLHSGVPSRFSGSGSGTDYSLTISNLEQEDIATYFCQQGSTLPFTFGSGTKLEIK
notes: also called chimeric D8S1
B2: D41S2 mouse/human chimeric anti-human CD47 antibody (antibody, V domains shown)
VH: B1 VH with V24P, K38R
VL: B1 VL with I43T
notes: also called chimeric D41S2
B3: D28S1 mouse/human chimeric anti-human CD47 antibody (antibody, V domains shown)
VH: EVQLVESGGDLVKPGGSLKLSCAASGFTFTSYGMSWVRQTPDKRLEWVATINTGGSYTYYPDSVKGRFTISRDNAKNTLYLQMSSLKSEDTAMYYCARHTIKSLMDYWGQGTSVTVSS
VL: ETTVTQSPASLSMAIGEKVTIRCITSTDIDDDMNWYQQKPGEPPKLLISEGNTLRPGVPSRFSSSGYGTDFVFIIENMFSEDVADYYCLQSDNLPYTFGSGTKLEIK
notes: also called chimeric D28S1; D28S1VH/VL
B4: HuD36S4 H2/L1 humanized anti-CD47 antibody (antibody, V domains shown)
VH: EVQLVESGGGLVQPGGSLRLSCAASGFTFSRYWMNWVRQAPGKGLEWVGQIRLKSDNYETHYAESVKGRFTISRDDSKNSLYLQMNSLKTEDTAVYYCIEEGGYYVPFAYWGQGTLVTVSS
VL: DIVMTQSPDSLAVSLGERATINCKSSQSLFKSRTRKNYLAWYQQKPGQPPKLLIYWASIRESGVPDRFSGSGSGTDFTLTISSLQAEDVAVYYCKQSYYLLTFGGGTKVEIK
B5: HuD36S4 H2/L2 humanized anti-CD47 antibody (antibody, V domains shown)
VH: B4 VH
VL: DIVMTQTPLSLPVTPGEPASISCKSSQSLFKSRTRKNYLAWYLQKPGQSPQLLIYWASIRESGVPDRFSGSGSGTDFTLKISRVEAEDVGVYYCKQSYYLLTFGGGTKVEIK
B6: HuD36S4 H1/L2 humanized anti-CD47 antibody (antibody, V domains shown)
VH: B4 VH with I99A, E100R
VL: B5 VL
B7: HuD36S4 H1/L1 humanized anti-CD47 antibody (antibody, V domains shown)
VH: B4 VH with I99A, E100R
VL: B4 VL
B8: HuD36S4 H3/L2 humanized anti-CD47 antibody (antibody, V domains shown)
VH: B4 VH with G49A, N79S
VL: B5 VL
B9: HuD36S4 H3/L1 humanized anti-CD47 antibody (antibody, V domains shown)
VH: B4 VH with G49A, N79S
VL: B4 VL

Positions count from the first letter of the chain named.

T2 sequence (Q08722 19-139 limits assumed): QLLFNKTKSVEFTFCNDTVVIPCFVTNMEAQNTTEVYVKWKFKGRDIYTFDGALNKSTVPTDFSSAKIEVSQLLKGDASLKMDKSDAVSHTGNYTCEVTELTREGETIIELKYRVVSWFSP
T1 sequence (Q08722 19-139 limits assumed): as above

One test has as its target T1, human CD47ECD mouse Fc protein (human, UniProt Q08722 19-139, limits assumed).
T1 construct: extracellular domain; also called HuCD47ECD muFc; bivalent CD47ECD muFc protein; not shown: mouse Fc
Description: SPR (Biacore 3000); antibody captured on anti-human Fc chip, bivalent HuCD47ECD muFc injected. The method, then: (§1) The binding affinities of anti-human CD47 mouse/human chimeric antibodies to human CD47 protein were determined with BIACORE™ using a capture method. The anti-human CD47 mouse/human chimeric antibodies were captured using anti-human Fc antibody coated on a CMS chip. Serial dilutions of human CD47ECD mouse Fc protein starting from 400 nM were injected over captured antibody for 1 mins at a flow rate of […]. Alternatively, serial dilutions of human CD47ECD His tagged protein starting from 800 nM were injected over captured antibody for 1 min at a flow rate of […]. The antigens were allowed to dissociate for 900s. All the experiments were carried out on a Biacore 3000. Data analysis was carried out using Biacore 3000 evaluation software.
On the technique in general: In SPR one partner is held on a chip, and binding of the other changes the refractive index at the surface.
In general, koff refers to the first-order rate constant of dissociation. Higher therefore signals fast dissociation. For orientation: kon means the second-order rate constant of association. A higher kon goes with fast association. In turn, B1 displayed a Kd of 0.295 nM, a koff of 4.77e-05 s⁻¹ and a kon of 161000 M⁻¹ s⁻¹.

For the molecule B2, the Kd was 0.228 nM, the koff amounted to 3.34e-05 s⁻¹ and the kon turned out to be 147000 M⁻¹ s⁻¹.

B3: the Kd turned out to be 1.38 nM, the koff amounted to 0.000413 s⁻¹ and the kon worked out at 299000 M⁻¹ s⁻¹.

A further test addresses T1, human CD47ECD mouse Fc protein. Description: SPR (Biacore 3000); antibody captured on anti-human Fc chip, bivalent HuCD47ECD muFc injected; column Affinity (nM). The protocol: as §1
On to B1, for which the Kd came to 0.295 nM.

For the molecule B2, the Kd came out at 0.228 nM.

For the molecule B3, the Kd amounted to 1.38 nM.

The next test has as its target T2, human CD47ECD His tagged protein (human, UniProt Q08722 19-139, limits assumed).
T2 construct: extracellular domain; also called HuCD47ECD 8xHis; monovalent CD47ECD His tagged protein
Description: SPR (Biacore 3000); antibody captured on anti-human Fc chip, monovalent HuCD47ECD 8xHis injected; column Affinity (nM). The protocol: as §1
In the case of B1, the Kd was 3.28 nM.

On to B2, for which the Kd is 5.2 nM.

For the next test, the target named is T3, human CD47 (full length) expressed on cells (human, UniProt Q08722 19-323).
T3 construct: whole, on cells; also called human CD47/CHO cells; CHO/CD47 cells
T3 sequence (Q08722 19-323): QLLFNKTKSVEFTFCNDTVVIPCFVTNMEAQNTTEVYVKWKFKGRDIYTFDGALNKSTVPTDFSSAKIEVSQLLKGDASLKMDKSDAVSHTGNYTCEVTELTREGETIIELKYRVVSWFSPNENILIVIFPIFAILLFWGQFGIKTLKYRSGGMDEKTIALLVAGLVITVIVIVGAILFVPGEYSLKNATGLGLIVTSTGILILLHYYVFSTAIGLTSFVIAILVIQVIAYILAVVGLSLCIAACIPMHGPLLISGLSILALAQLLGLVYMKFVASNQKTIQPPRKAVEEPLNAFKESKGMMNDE
Description: FACS ligand blocking on CD47-CHO cells; blocked ligand FITC human SIRPa huFc at 4 ug/ml. The protocol:
To evaluate the blocking effect of anti-human CD47 mouse/human chimeric antibodies to human full length CD47 expressed on CHO cells, the FACS-based ligand blocking assay was used. CD47-CHO cells were first incubated with 3 fold serially diluted mouse/human chimeric mAbs starting at 100 μg/ml on ice for 30 min. […] The cells were then washed 3 times with the FACS buffer and the mean florescence intensities (MFI) of FITC were evaluated by FACS Caliber. […] AB6.12 is a humanized version of anti-CD47 antibody 2A1 from Celgene and was used as a reference antibody in the assay.
As a reminder, the IC50 is the concentration that gives 50% inhibition. Low values mean greater potency, high ones weaker potency. In the case of B1, 19.4 µg/mL corresponded to half-maximal inhibition (IC50).

B2 registered an IC50 of 11.6 µg/mL. Against the preceding molecule, the IC50 is about 1.7-fold lower.

B3 registered an IC50 of 12.3 µg/mL. The IC50 values of the last two molecules are within 1.5-fold of each other.

The target of the next test is T3, human CD47 (full length) expressed on …. Description: FACS ligand blocking on CD47-CHO cells; blocked ligand FITC human SIRPa huFc at 5 ug/ml. The protocol:
The cells were then washed 3 times with the FACS buffer and the mean florescence intensities (MFI) of FITC were evaluated by FACS Caliber.
For B4, inhibition was half-maximal at 1.9 µg/mL (IC50).

In the case of B5, the IC50 is 3.6 µg/mL.

On to B6, for which the 50% inhibitory concentration (IC50) came out at 13 µg/mL.

Consider B7, for which the IC50 turned out to be 7.3 µg/mL. This IC50 lies about 1.8-fold lower than the previous one.

For the molecule B8, the IC50 stood at 2.5 µg/mL.

Take B9: half-maximal inhibition (IC50) was put at 4.4 µg/mL. This IC50 lies about 1.8-fold higher than the previous one.

Another test has as its target T2, human CD47ECD His tagged protein. Description: SPR (Biacore 3000); antibody captured on anti-human Fc chip, monovalent HuCD47ECD 8xHis injected. The protocol:
as §1
B1 gave a Kd of 3.28 nM, a koff of 0.00049 s⁻¹ and a kon of 150000 M⁻¹ s⁻¹.

As for B2, the Kd was 5.2 nM, the koff was found to be 0.000756 s⁻¹ and the kon came to 145000 M⁻¹ s⁻¹.

The target is the same in the next test. Description: ELISA ligand blocking, plate coated with human CD47 ECD His tagged protein at 1 ug/ml; blocked ligand human SIRPaECD muFc at 1 ug/ml, anti-mouse IgG-HRP. The protocol:
Briefly, microtiter plates were coated with human CD47ECD His tagged protein at 1 μg/ml in PBS, 100 μl well at 4° C. overnight, then blocked with 100 μl/well of 2% BSA. […] The plates were washed with PBS/Tween and then incubated with anti-mouse IgG-HRP for 1 hour at 37° C. After washing, the plates were developed with TMB substrate and analyzed by spectrophotometer at OD 450 nm.
Background: ELISA stands for enzyme-linked immunosorbent assay.
The molecule B4 registered an IC50 of 0.09 µg/mL.

The molecule B5 registered an IC50 of 0.11 µg/mL.

Take B6: the IC50 amounted to 2.76 µg/mL.

The molecule B7 registered an IC50 of 2.3 µg/mL. The IC50 values of the last two molecules are within 1.5-fold of each other.

For B8, it took 0.1 µg/mL to reach half-maximal inhibition (IC50).

B9 registered an IC50 of 0.17 µg/mL.

For the origin of these results see patent US20210206850A1 (ACCURUS BIOSCIENCES, published 2021).
